Source: the RNAGym collection of RNA variant scans (doi:10.1093/molbev/msab373)

B1: Azoarcus group I ribozyme (parent)
chain: GUGCCUUGCGCCGGGAAACCACGCAAGGGAUGGUGUCAAAUUCGGCGAAACCUAAGCGCCCGCCCGGGCGUAUGGCAACGCCGAGCCAAGCUUCGGCGCCUGCGCCGAUGAAGGUGUAGAGACUAGACGGCACCCACCUAAGGCAAACGCUAUGGUGAAGGCAUAGUCCAGGGAGUGGCGAAAGUCACACAAACCGG

Variants of: B1
Experiment: reverse-splicing fitness (ratio to wild type); higher = more active; in vitro selection; Mg2+ level not given
How it was run: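 An in vitro group I ribozyme library with randomized positions was T7-transcribed and gel-purified. In triplicate, 10 pmol RNA in EPPS pH 7.5 was reacted with 50 pmoles of a 30-nt RNA substrate for 1 h at 37 °C across several added MgCl2 levels (1–48 mM), then stopped with EDTA. Products were reverse transcribed from a substrate-complementary primer, PCR-amplified and sequenced (HiSeq 4000). Fitness is a variant's read proportion after selection over that before, normalised to wild type.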

Variant	reverse-splicing fitness
GUGCCUUGCGCCGGGAAACCACGCAAGGGAUGGUGUCAAAUUCGGCGAAACCUAAGCGCCCGCCCGGGCGUAUGGCAACGCUGAGCCAAGCUUCGGCGCCUGCGCCGAUGCAGGUGUAGUGACUAGACGGCACCCACCUAAGGCCAACGGUAUGGUGAAGGCAUAGUCCAGGGAGCGGCGAAAGUCACACAAACCGG	0.00485
GUGCCUUGCGCCGGGAAACCACGCAAGGGAUGGUGUCAAAUUCGGCGAAACCUAAGCGCCCGCCCGGGCGUAUGGCAACGCUGAGCCAAGCUUCGGCGCCUGCGCCGAUGCAGGUGUAGUGACUAGACGGCACCCACCUAAGGCCAACGGUAUGGUGAAGGCAUAGUCCAGGGAGGGGCGAAAGUCACACAAACCGG	0.00239
GUGCCUUGCGCCGGGAAACCACGCAAGGGAUGGUGUCAAAUUCGGCGAAACCUAAGCGCCCGCCCGGGCGUAUGGCAACGCUGAGCCAAGCUUCGGCGCCUGCGCCGAUGCAGGUGUAGUGACUAGACGGCACCCACCUAAGGCCAACGUUAUGGUGAAGGCAUAGUCCAGGGAGUGGCGAAAGUCACACAAACCGG	0.00868
GUGCCUUGCGCCGGGAAACCACGCAAGGGAUGGUGUCAAAUUCGGCGAAACCUAAGCGCCCGCCCGGGCGUAUGGCAACGCUGAGCCAAGCUUCGGCGCCUGCGCCGAUGCAGGUGUAGUGACUAGACGGCACCCACCUAAGGCCAACGUUAUGGUGAAGGCAUAGUCAAGGGAGUGGCGAAAGUCACACAAACCGG	0.00253
GUGCCUUGCGCCGGGAAACCACGCAAGGGAUGGUGUCAAAUUCGGCGAAACCUAAGCGCCCGCCCGGGCGUAUGGCAACGCUGAGCCAAGCUUCGGCGCCUGCGCCGAUGCAGGUGUAGUGACUAGACGGCACCCACCUAAGGCCAACGUUAUGGUGAAGGCAUAGUCAAGGGAGAGGCGAAAGUCACACAAACCGG	0.00213
GUGCCUUGCGCCGGGAAACCACGCAAGGGAUGGUGUCAAAUUCGGCGAAACCUAAGCGCCCGCCCGGGCGUAUGGCAACGCUGAGCCAAGCUUCGGCGCCUGCGCCGAUGCAGGUGUAGUGACUAGACGGCACCCACCUAAGGCCAACGUUAUGGUGAAGGCAUAGUCAAGGGAGCGGCGAAAGUCACACAAACCGG	0.0025
GUGCCUUGCGCCGGGAAACCACGCAAGGGAUGGUGUCAAAUUCGGCGAAACCUAAGCGCCCGCCCGGGCGUAUGGCAACGCUGAGCCAAGCUUCGGCGCCUGCGCCGAUGCAGGUGUAGUGACUAGACGGCACCCACCUAAGGCCAACGUUAUGGUGAAGGCAUAGUCAAGGGAGGGGCGAAAGUCACACAAACCGG	0.00235
GUGCCUUGCGCCGGGAAACCACGCAAGGGAUGGUGUCAAAUUCGGCGAAACCUAAGCGCCCGCCCGGGCGUAUGGCAACGCUGAGCCAAGCUUCGGCGCCUGCGCCGAUGCAGGUGUAGUGACUAGACGGCACCCACCUAAGGCCAACGUUAUGGUGAAGGCAUAGUCGAGGGAGUGGCGAAAGUCACACAAACCGG	0.00293
GUGCCUUGCGCCGGGAAACCACGCAAGGGAUGGUGUCAAAUUCGGCGAAACCUAAGCGCCCGCCCGGGCGUAUGGCAACGCUGAGCCAAGCUUCGGCGCCUGCGCCGAUGCAGGUGUAGUGACUAGACGGCACCCACCUAAGGCCAACGUUAUGGUGAAGGCAUAGUCGAGGGAGAGGCGAAAGUCACACAAACCGG	0.003
GUGCCUUGCGCCGGGAAACCACGCAAGGGAUGGUGUCAAAUUCGGCGAAACCUAAGCGCCCGCCCGGGCGUAUGGCAACGCUGAGCCAAGCUUCGGCGCCUGCGCCGAUGCAGGUGUAGUGACUAGACGGCACCCACCUAAGGCCAACGUUAUGGUGAAGGCAUAGUCGAGGGAGCGGCGAAAGUCACACAAACCGG	0.00273
GUGCCUUGCGCCGGGAAACCACGCAAGGGAUGGUGUCAAAUUCGGCGAAACCUAAGCGCCCGCCCGGGCGUAUGGCAACGCUGAGCCAAGCUUCGGCGCCUGCGCCGAUGCAGGUGUAGUGACUAGACGGCACCCACCUAAGGCCAACGUUAUGGUGAAGGCAUAGUCGAGGGAGGGGCGAAAGUCACACAAACCGG	0.00216
GUGCCUUGCGCCGGGAAACCACGCAAGGGAUGGUGUCAAAUUCGGCGAAACCUAAGCGCCCGCCCGGGCGUAUGGCAACGCUGAGCCAAGCUUCGGCGCCUGCGCCGAUGCAGGUGUAGUGACUAGACGGCACCCACCUAAGGCCAACGUUAUGGUGAAGGCAUAGUCUAGGGAGUGGCGAAAGUCACACAAACCGG	0.00319
GUGCCUUGCGCCGGGAAACCACGCAAGGGAUGGUGUCAAAUUCGGCGAAACCUAAGCGCCCGCCCGGGCGUAUGGCAACGCUGAGCCAAGCUUCGGCGCCUGCGCCGAUGCAGGUGUAGUGACUAGACGGCACCCACCUAAGGCCAACGUUAUGGUGAAGGCAUAGUCUAGGGAGAGGCGAAAGUCACACAAACCGG	0.00314
GUGCCUUGCGCCGGGAAACCACGCAAGGGAUGGUGUCAAAUUCGGCGAAACCUAAGCGCCCGCCCGGGCGUAUGGCAACGCUGAGCCAAGCUUCGGCGCCUGCGCCGAUGCAGGUGUAGUGACUAGACGGCACCCACCUAAGGCCAACGUUAUGGUGAAGGCAUAGUCUAGGGAGCGGCGAAAGUCACACAAACCGG	0.00255
GUGCCUUGCGCCGGGAAACCACGCAAGGGAUGGUGUCAAAUUCGGCGAAACCUAAGCGCCCGCCCGGGCGUAUGGCAACGCUGAGCCAAGCUUCGGCGCCUGCGCCGAUGCAGGUGUAGUGACUAGACGGCACCCACCUAAGGCCAACGUUAUGGUGAAGGCAUAGUCUAGGGAGGGGCGAAAGUCACACAAACCGG	0.00224
